In the supplement of paper PMC10266784:

B1: library; numbered along this chain (parent)
chain: MAAAAAAAAEQQSSNGPVKKSMREKAVERRSVNKEHNSNFKAGYIPIDEDRLHKTGLRGRKGNLAICVIILLFILAVINLIITLVIWAVIRIGPNGCDSMEFHESGLLRFKQVSDMGVIHPLYKSTVGGRRNENLVITGNNQPIVFQQGTTKLSVENNKTSITSDIGMQFFDPRTQNILFSTDYETHEFHLPSGVKSLNVQKASTERITSNATSDLNIKVDGRAIVRGNEGVFIMGKTIEFHMGGNMELKAENSIILNGSVMVSTTRLPSSSSGDQLGSGDWVRYKLCMCADGTLFKVQVTSQNMGCQISDNPCGNTH

Variants of: B1
Experiment: SGCB cell-surface expression functional score (HA stain, bin4 vs bin1, normalised to synonymous) (log10 ratio); higher = more cell-surface SGCB (functional)
How it was run: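 Codon-saturation libraries of HA-tagged, YFP-fused human beta-sarcoglycan were lentivirally transduced at MOI <0.1 into HEK293 cells stably expressing alpha-, gamma- and delta-sarcoglycan. YFP-positive cells were sorted after 72 hours, grown 5–7 days, stained on ice with Alexa Fluor 647 anti-HA, fixed, sorted into four 5% intensity bins and amplicon-sequenced. The functional score is the log ratio of highest-bin to lowest-bin variant frequency, taken as the median over codons and duplicate transductions. Synonymous variants were scaled per section to mean 0, SD 0.5.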

| Variant | SGCB cell-surface expression functional score (log10) |
| --- | --- |
| MAAAAAAAAEQQSSNGPVKKSMREKAVERRSVNKEHNSNFKAGYIPIDEDRLHKTGLRGRKGNLAICVIILLFILAVINLIITLVIWAVIRIGPNGCDSMEFHESGLLRFKQVSDMGVIHPLYKSTVGGRRNENLVITGNNQPIVFQQGTTKLSVENNKTSITSDIGMQFFDPRTQNILFSTDYETHEFHLPSGVKSLNVQKASTERITSNATSDLNIKVDGRAIVRGNEGVFIMGKTVEFHMGGNMELKAENSIILNGSVMVSTTRLPSSSSGDQLGSGDWVRYKLCMCADGTLFKVQVTSQNMGCQISDNPCGNTH [I239V] | 0.12 |
| MAAAAAAAAEQQSSNGPVKKSMREKAVERRSVNKEHNSNFKAGYIPIDEDRLHKTGLRGRKGNLAICVIILLFILAVINLIITLVIWAVIRIGPNGCDSMEFHESGLLRFKQVSDMGVIHPLYKSTVGGRRNENLVITGNNQPIVFQQGTTKLSVENNKTSITSDIGMQFFDPRTQNILFSTDYETHEFHLPSGVKSLNVQKASTERITSNATSDLNIKVDGRAIVRGNEGVFIMGKTMEFHMGGNMELKAENSIILNGSVMVSTTRLPSSSSGDQLGSGDWVRYKLCMCADGTLFKVQVTSQNMGCQISDNPCGNTH [I239M] | 0.83 |
| MAAAAAAAAEQQSSNGPVKKSMREKAVERRSVNKEHNSNFKAGYIPIDEDRLHKTGLRGRKGNLAICVIILLFILAVINLIITLVIWAVIRIGPNGCDSMEFHESGLLRFKQVSDMGVIHPLYKSTVGGRRNENLVITGNNQPIVFQQGTTKLSVENNKTSITSDIGMQFFDPRTQNILFSTDYETHEFHLPSGVKSLNVQKASTERITSNATSDLNIKVDGRAIVRGNEGVFIMGKTNEFHMGGNMELKAENSIILNGSVMVSTTRLPSSSSGDQLGSGDWVRYKLCMCADGTLFKVQVTSQNMGCQISDNPCGNTH [I239N] | -1.44 |
| MAAAAAAAAEQQSSNGPVKKSMREKAVERRSVNKEHNSNFKAGYIPIDEDRLHKTGLRGRKGNLAICVIILLFILAVINLIITLVIWAVIRIGPNGCDSMEFHESGLLRFKQVSDMGVIHPLYKSTVGGRRNENLVITGNNQPIVFQQGTTKLSVENNKTSITSDIGMQFFDPRTQNILFSTDYETHEFHLPSGVKSLNVQKASTERITSNATSDLNIKVDGRAIVRGNEGVFIMGKTPEFHMGGNMELKAENSIILNGSVMVSTTRLPSSSSGDQLGSGDWVRYKLCMCADGTLFKVQVTSQNMGCQISDNPCGNTH [I239P] | -1.08 |
| MAAAAAAAAEQQSSNGPVKKSMREKAVERRSVNKEHNSNFKAGYIPIDEDRLHKTGLRGRKGNLAICVIILLFILAVINLIITLVIWAVIRIGPNGCDSMEFHESGLLRFKQVSDMGVIHPLYKSTVGGRRNENLVITGNNQPIVFQQGTTKLSVENNKTSITSDIGMQFFDPRTQNILFSTDYETHEFHLPSGVKSLNVQKASTERITSNATSDLNIKVDGRAIVRGNEGVFIMGKTREFHMGGNMELKAENSIILNGSVMVSTTRLPSSSSGDQLGSGDWVRYKLCMCADGTLFKVQVTSQNMGCQISDNPCGNTH [I239R] | -1.04 |
| MAAAAAAAAEQQSSNGPVKKSMREKAVERRSVNKEHNSNFKAGYIPIDEDRLHKTGLRGRKGNLAICVIILLFILAVINLIITLVIWAVIRIGPNGCDSMEFHESGLLRFKQVSDMGVIHPLYKSTVGGRRNENLVITGNNQPIVFQQGTTKLSVENNKTSITSDIGMQFFDPRTQNILFSTDYETHEFHLPSGVKSLNVQKASTERITSNATSDLNIKVDGRAIVRGNEGVFIMGKTQEFHMGGNMELKAENSIILNGSVMVSTTRLPSSSSGDQLGSGDWVRYKLCMCADGTLFKVQVTSQNMGCQISDNPCGNTH [I239Q] | -1.16 |
| MAAAAAAAAEQQSSNGPVKKSMREKAVERRSVNKEHNSNFKAGYIPIDEDRLHKTGLRGRKGNLAICVIILLFILAVINLIITLVIWAVIRIGPNGCDSMEFHESGLLRFKQVSDMGVIHPLYKSTVGGRRNENLVITGNNQPIVFQQGTTKLSVENNKTSITSDIGMQFFDPRTQNILFSTDYETHEFHLPSGVKSLNVQKASTERITSNATSDLNIKVDGRAIVRGNEGVFIMGKTTEFHMGGNMELKAENSIILNGSVMVSTTRLPSSSSGDQLGSGDWVRYKLCMCADGTLFKVQVTSQNMGCQISDNPCGNTH [I239T] | 0.15 |
| MAAAAAAAAEQQSSNGPVKKSMREKAVERRSVNKEHNSNFKAGYIPIDEDRLHKTGLRGRKGNLAICVIILLFILAVINLIITLVIWAVIRIGPNGCDSMEFHESGLLRFKQVSDMGVIHPLYKSTVGGRRNENLVITGNNQPIVFQQGTTKLSVENNKTSITSDIGMQFFDPRTQNILFSTDYETHEFHLPSGVKSLNVQKASTERITSNATSDLNIKVDGRAIVRGNEGVFIMGKTYEFHMGGNMELKAENSIILNGSVMVSTTRLPSSSSGDQLGSGDWVRYKLCMCADGTLFKVQVTSQNMGCQISDNPCGNTH [I239Y] | -1.52 |
| MAAAAAAAAEQQSSNGPVKKSMREKAVERRSVNKEHNSNFKAGYIPIDEDRLHKTGLRGRKGNLAICVIILLFILAVINLIITLVIWAVIRIGPNGCDSMEFHESGLLRFKQVSDMGVIHPLYKSTVGGRRNENLVITGNNQPIVFQQGTTKLSVENNKTSITSDIGMQFFDPRTQNILFSTDYETHEFHLPSGVKSLNVQKASTERITSNATSDLNIKVDGRAIVRGNEGVFIMGKTLEFHMGGNMELKAENSIILNGSVMVSTTRLPSSSSGDQLGSGDWVRYKLCMCADGTLFKVQVTSQNMGCQISDNPCGNTH [I239L] | 0.49 |
| MAAAAAAAAEQQSSNGPVKKSMREKAVERRSVNKEHNSNFKAGYIPIDEDRLHKTGLRGRKGNLAICVIILLFILAVINLIITLVIWAVIRIGPNGCDSMEFHESGLLRFKQVSDMGVIHPLYKSTVGGRRNENLVITGNNQPIVFQQGTTKLSVENNKTSITSDIGMQFFDPRTQNILFSTDYETHEFHLPSGVKSLNVQKASTERITSNATSDLNIKVDGRAIVRGNEGVFIMGKTKEFHMGGNMELKAENSIILNGSVMVSTTRLPSSSSGDQLGSGDWVRYKLCMCADGTLFKVQVTSQNMGCQISDNPCGNTH [I239K] | -1.38 |
| MAAAAAAAAEQQSSNGPVKKSMREKAVERRSVNKEHNSNFKAGYIPIDEDRLHKTGLRGRKGNLAICVIILLFILAVINLIITLVIWAVIRIGPNGCDSMEFHESGLLRFKQVSDMGVIHPLYKSTVGGRRNENLVITGNNQPIVFQQGTTKLSVENNKTSITSDIGMQFFDPRTQNILFSTDYETHEFHLPSGVKSLNVQKASTERITSNATSDLNIKVDGRAIVRGNEGVFIMGKTWEFHMGGNMELKAENSIILNGSVMVSTTRLPSSSSGDQLGSGDWVRYKLCMCADGTLFKVQVTSQNMGCQISDNPCGNTH [I239W] | -0.02 |
| MAAAAAAAAEQQSSNGPVKKSMREKAVERRSVNKEHNSNFKAGYIPIDEDRLHKTGLRGRKGNLAICVIILLFILAVINLIITLVIWAVIRIGPNGCDSMEFHESGLLRFKQVSDMGVIHPLYKSTVGGRRNENLVITGNNQPIVFQQGTTKLSVENNKTSITSDIGMQFFDPRTQNILFSTDYETHEFHLPSGVKSLNVQKASTERITSNATSDLNIKVDGRAIVRGNEGVFIMGKTSEFHMGGNMELKAENSIILNGSVMVSTTRLPSSSSGDQLGSGDWVRYKLCMCADGTLFKVQVTSQNMGCQISDNPCGNTH [I239S] | -1.1 |
| MAAAAAAAAEQQSSNGPVKKSMREKAVERRSVNKEHNSNFKAGYIPIDEDRLHKTGLRGRKGNLAICVIILLFILAVINLIITLVIWAVIRIGPNGCDSMEFHESGLLRFKQVSDMGVIHPLYKSTVGGRRNENLVITGNNQPIVFQQGTTKLSVENNKTSITSDIGMQFFDPRTQNILFSTDYETHEFHLPSGVKSLNVQKASTERITSNATSDLNIKVDGRAIVRGNEGVFIMGKTICFHMGGNMELKAENSIILNGSVMVSTTRLPSSSSGDQLGSGDWVRYKLCMCADGTLFKVQVTSQNMGCQISDNPCGNTH [E240C] | 0.37 |
| MAAAAAAAAEQQSSNGPVKKSMREKAVERRSVNKEHNSNFKAGYIPIDEDRLHKTGLRGRKGNLAICVIILLFILAVINLIITLVIWAVIRIGPNGCDSMEFHESGLLRFKQVSDMGVIHPLYKSTVGGRRNENLVITGNNQPIVFQQGTTKLSVENNKTSITSDIGMQFFDPRTQNILFSTDYETHEFHLPSGVKSLNVQKASTERITSNATSDLNIKVDGRAIVRGNEGVFIMGKTIGFHMGGNMELKAENSIILNGSVMVSTTRLPSSSSGDQLGSGDWVRYKLCMCADGTLFKVQVTSQNMGCQISDNPCGNTH [E240G] | 0.76 |
| MAAAAAAAAEQQSSNGPVKKSMREKAVERRSVNKEHNSNFKAGYIPIDEDRLHKTGLRGRKGNLAICVIILLFILAVINLIITLVIWAVIRIGPNGCDSMEFHESGLLRFKQVSDMGVIHPLYKSTVGGRRNENLVITGNNQPIVFQQGTTKLSVENNKTSITSDIGMQFFDPRTQNILFSTDYETHEFHLPSGVKSLNVQKASTERITSNATSDLNIKVDGRAIVRGNEGVFIMGKTIIFHMGGNMELKAENSIILNGSVMVSTTRLPSSSSGDQLGSGDWVRYKLCMCADGTLFKVQVTSQNMGCQISDNPCGNTH [E240I] | 0.23 |
| MAAAAAAAAEQQSSNGPVKKSMREKAVERRSVNKEHNSNFKAGYIPIDEDRLHKTGLRGRKGNLAICVIILLFILAVINLIITLVIWAVIRIGPNGCDSMEFHESGLLRFKQVSDMGVIHPLYKSTVGGRRNENLVITGNNQPIVFQQGTTKLSVENNKTSITSDIGMQFFDPRTQNILFSTDYETHEFHLPSGVKSLNVQKASTERITSNATSDLNIKVDGRAIVRGNEGVFIMGKTIDFHMGGNMELKAENSIILNGSVMVSTTRLPSSSSGDQLGSGDWVRYKLCMCADGTLFKVQVTSQNMGCQISDNPCGNTH [E240D] | 0.58 |
| MAAAAAAAAEQQSSNGPVKKSMREKAVERRSVNKEHNSNFKAGYIPIDEDRLHKTGLRGRKGNLAICVIILLFILAVINLIITLVIWAVIRIGPNGCDSMEFHESGLLRFKQVSDMGVIHPLYKSTVGGRRNENLVITGNNQPIVFQQGTTKLSVENNKTSITSDIGMQFFDPRTQNILFSTDYETHEFHLPSGVKSLNVQKASTERITSNATSDLNIKVDGRAIVRGNEGVFIMGKTIFFHMGGNMELKAENSIILNGSVMVSTTRLPSSSSGDQLGSGDWVRYKLCMCADGTLFKVQVTSQNMGCQISDNPCGNTH [E240F] | 0.84 |
| MAAAAAAAAEQQSSNGPVKKSMREKAVERRSVNKEHNSNFKAGYIPIDEDRLHKTGLRGRKGNLAICVIILLFILAVINLIITLVIWAVIRIGPNGCDSMEFHESGLLRFKQVSDMGVIHPLYKSTVGGRRNENLVITGNNQPIVFQQGTTKLSVENNKTSITSDIGMQFFDPRTQNILFSTDYETHEFHLPSGVKSLNVQKASTERITSNATSDLNIKVDGRAIVRGNEGVFIMGKTIHFHMGGNMELKAENSIILNGSVMVSTTRLPSSSSGDQLGSGDWVRYKLCMCADGTLFKVQVTSQNMGCQISDNPCGNTH [E240H] | 0.77 |
| MAAAAAAAAEQQSSNGPVKKSMREKAVERRSVNKEHNSNFKAGYIPIDEDRLHKTGLRGRKGNLAICVIILLFILAVINLIITLVIWAVIRIGPNGCDSMEFHESGLLRFKQVSDMGVIHPLYKSTVGGRRNENLVITGNNQPIVFQQGTTKLSVENNKTSITSDIGMQFFDPRTQNILFSTDYETHEFHLPSGVKSLNVQKASTERITSNATSDLNIKVDGRAIVRGNEGVFIMGKTIAFHMGGNMELKAENSIILNGSVMVSTTRLPSSSSGDQLGSGDWVRYKLCMCADGTLFKVQVTSQNMGCQISDNPCGNTH [E240A] | 0.93 |
